In assay [1] the target is T1, TIM-3 (T cell immunoglobulin and mucin-domain containing-3) (human, UniProt Q8TDQ0 22-200, limits assumed).
T1 construct: also called TIMD-3; HAVCR2
T1 sequence (looked up): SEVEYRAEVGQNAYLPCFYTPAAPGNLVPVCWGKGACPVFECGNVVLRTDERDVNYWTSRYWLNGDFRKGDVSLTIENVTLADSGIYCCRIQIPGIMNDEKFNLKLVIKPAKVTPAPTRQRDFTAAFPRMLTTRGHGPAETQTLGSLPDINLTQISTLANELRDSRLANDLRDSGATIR
Kind of assay: Biacore, Fab on TIM-3.

Assay [2] has as its target T1, TIM-3 (T cell immunoglobulin and …). Nature of the assay: ELISA, Fab on TIM-3. On the technique in general: In an ELISA, binding on a coated surface is turned into a signal by an enzyme label.

Numbering of substitutions follows the chain as printed.

B1: Fab clone 2A2 (Fab, V domains shown)
VH: EVQVQESGGGLVQPGGSLRLSCAASGFTFSSYAMSWVRQAPGKGLEWVSDINSGGGSTVYTDSVKGRFTISRDNAKNTLYLQMNSLKPDDTAVYYCATGGSYYSYRLFDYWGQGTQVTVSS
VL: DIQMTQSPSSVIVSAGEKVTINCKSSQSVLDSSNQKNYLAWYQQRLGQSPRLLIYWASTRESGVPDRFSGSGSTTDFTLTISSFQPEDAAVYYCQQGYSVPVTFGQGTKVELKR
notes: Llama-derived Fab from an immune library; the constant domains of the Fab are not
Molecule B1 registered a koff in assay [1] of 4.41e-05 s⁻¹. A half-maximal effect in assay [2] (EC50) was put at 0.00805 µg/mL.

B2: Fab clone 2A6 (Fab, V domains shown)
VH: QVQLVESGGGLVQPGGSLRLSCAASGFTFSNYWMYWVRQAPGKGLEWVSTINTNGAITLYADNVKDRFTVSRDNAKNTLYLQMNSLKSEDTAVYYCAKVKLSGYPHPYYAMDYWGKGTLVTVSS
VL: NFMLTQPPSLSGSLGQSARLTCTLGSGNSIGAHTISWYQQKAGSPPRYLLNYYSDSSNHQASGVPSRFSGSKDDSTNAGLLLISGLQPEDEADYYCAAGDGSGTVFGGGTKLTVL
notes: as for B1
B2 gave a koff in assay [1] of 0.000151 s⁻¹. It took 0.0104 µg/mL to reach a half-maximal effect in assay [2] (EC50).

B3: Fab clone 1A11 (Fab, V domains shown)
VH: EVQLVESGGGLVQPGGSLRLSCAASGFTFSSYAMSWVRQAPGKGPEWVSHINSGGGNTKYADSVKGRFTISRDNAKNTLYLQMNTLKPEDTAVYYCAKDVSGGYYGTYALDAWGQGTQVVVSS
VL: SYELTQSPSVSVALKQTAKITCGGDNIGSKSAQWYQQKPGQAPVLVIYADSRRPSGIPERFSGSNSGNTATLTISGAQAEDEADYYCQVWDSSAAVFGGGTHLTVL
notes: as for B1
Take B3: the koff in assay [1] was found to be 2.48e-05 s⁻¹. This molecule came in with an EC50 in assay [2] of 0.01 µg/mL.

B4: Fab clone 2E7 (Fab, V domains shown)
VH: ELQVVESGGGLVQPGGSLRLSCAASGFTFGSYDMSWHRQAPRKGPEWVSTISAGGGRTYYADSVKGRFTISRDNAKNTLYLQMNSLKPEDTAVYFCTKIVLDSWGQGTQVTVSS
VL: DVVLTQTPGSLSVVPGESASISCKASQSLIHIDGKTYLYWLLQKPGRRPELLIYQVSNHESGVPDRFTGSGSGTDFTLKISGVKAEDAGVYYCAQATYYPSFGSGTRLEIK
notes: as for B1
For the molecule B4, the koff in assay [1] was 7.62e-05 s⁻¹. Besides, the EC50 in assay [2] turned out to be 0.0133 µg/mL.

B5: Fab clone 2F8 (Fab, V domains shown)
VH: B4 VH with L2V, V4L, H37V, R42G, G66D, F95Y, T97A, I99V, L101I, S103Y
VL: B4 VL with I30V, I32T, L38V, R47Q, E50H
notes: as for B1
In assay [1], B5 gave an off-rate (koff) of 8.53e-05 s⁻¹. Also, in assay [2], the EC50 was found to be 0.0181 µg/mL.

B6: Fab clone 2E2 (Fab, V domains shown)
VH: QLQLVESGGGLVQPGGSLRLSCAASGFTFGSYDMSWVRQAPGKGPEWVSRITSGGGSTYADSVKGRFTISRDNAKNTLSLQMNSLKSEDTAVYYCAAGQYSDGYYPYDYWGQGTQVTVSS
VL: DIVMTQSPSSLSASLGDRVTITCQASQSISSYLAWYQQKPGQGPKLLIYGASRLEPGVPSRFSGSGSGTSFTLTISGVEAEDLATYYCLQDYSWPYSFGSGTRLEIK
notes: as for B1
For the molecule B6, it took 0.121 µg/mL to reach a half-maximal effect in assay [2] (EC50).

B7: Fab clone 2C6 (Fab, V domains shown)
VH: QVQLVESGGGLVQPGGSLRLSCAASGFAFSSYDMSWVRQAPGKGPEWVSTINSGGGSTSYADSVKGRFTISRDNAKNTVYLQMNSLKPEDTAVYYCAARSLYYTRVPMYDYWGQGTQVTVSK
VL: QAVVTQEPSLSVSPGGTVTLTCGLSSGSVTTNNYPGWFQQTPGQAPRTLIYSTSSRHSGVPSRFSGSISGNKAALTITGAQPEDEADYYCALDIGSYTAVFGGGTHLTVL
notes: as for B1
As for B7, in assay [1], the koff came to 1.04e-05 s⁻¹. Also, in assay [2], a half-maximal effect (EC50) was put at 0.00821 µg/mL.

B8: Fab clone 2B6 (Fab, V domains shown)
VH: B7 VH with P45L, S59N, V64M, L101P, M108L, K122S
VL: QAVVTQEPSLSVSLGGTVTLTCGLRSGSVTTSNYPGWFKQTPGQAPRTLIFGASSRHSGVPSRYSGSISGNKAALTITGAEPEDEADYYCALNKGTYTDVFGGGTKLTVL
notes: as for B1
In the case of B8, the koff in assay [1] came out at 3.64e-05 s⁻¹. In assay [2], this molecule registered an EC50 of 0.00852 µg/mL.

B9: Fab clone 2E9 (Fab, V domains shown)
VH: EVQLVESGGGLVQPGGSLRLSCAASGFTFDDYTMSWVRQVPGKGLEWISGISGNGGRTDYVEPIEGRFTISRDNAKNTLYLQMNSLKSEDTAVYYCAKTSPQSLDYWGQGTQVTVSS
VL: DIVMTQSPSSVTASVGEKVTINCKSSQSVVSGSNQKSYLNWYQQRPGQPPRLLIYYASTQESGIPDRFSGSGSTTDFTLTISSVQPEDAAVYYCQQAYSAPYNFGSGTRLEIK
notes: as for B1
In assay [1], B9 came in with a koff of 6.64e-05 s⁻¹. The molecule further registered an EC50 in assay [2] of 0.0149 µg/mL.

B10: Fab clone 2B10 (Fab, V domains shown)
VH: QVQLQESGPGLVKPSQTLSLTCTVSGGSITTNRYLWTWIRQTPGKGLEWVGAIAYSGRTYYSPSLKSRTSISRDTSKNQFTLQLSSVTPEDTGVYYCAHFTGWGGYYWGQGTQVTVSS
VL: QSALTQPPSVSGTLGKTVTISCAGTSSDIGGYNSVSWYQQLPGTAPKLLIYEVNKRASGIPDRFSGSKSGNTASLSISGLQSEDEADYYCASYRSANNVVFGGGTKLTVL
notes: Llama-derived Fab from an immune library; the constant domains of the Fab are not; also called 2610; 21310
In turn, B10 registered a koff in assay [1] of 1.85e-05 s⁻¹. Also, a half-maximal effect in assay [2] (EC50) was put at 0.014 µg/mL.

B11: Fab clone 2D6 (Fab, V domains shown)
VH: QVQLQESGGGLVQPGGSLTLSCAASGFFFSSYAMSWVRQAPGKGLEWVSSISAGGGTSYYADSVKGRFTISRDSAKNTLVLQMNSLKPEDTAVYYCAKKRQNFWSEGYDSWGQGTQVTVSS
VL: HSAVTQPPSVSGSPGKAVTISCVGSSSDVGYGDYVSWYQQLPGMAPKLLIYDVEKRASGIPDRFSGSKSGNTASLTISGLQSEDEADYYCASYRSDSNFVFGGGTHLAVL
notes: as for B1
For the molecule B11, in assay [1], the koff is 0.000166 s⁻¹. The molecule further showed an EC50 in assay [2] of 0.00717 µg/mL.

B12: Fab clone 2G6 (Fab, V domains shown)
VH: EVQLVESGGGLVQPGGSLRLSCAASGFTFSSYSMSWVRQAPGKGPEWVSGINTSGGTTSYAASVKGRFTVSRDNAKNTLSLQMNSLEPEDTAVYYCVKHIRWSGSNYYYYGMDYWGKGTLVTVSS
VL: QAVLTQPPSVSGSPGQRFTISCTGSNRNIGNNYVNWYQQLPGTAPKLLIYSDNLRTSGVPARFSASKSGTTSSLTISGLQAEDEAVYYCSSWDDSLSGAVFGGGTHLTVL
notes: as for B1
Regarding B12, the koff in assay [1] came to 3.72e-05 s⁻¹. The EC50 in assay [2] came out at 0.0133 µg/mL.

B13: Fab clone 2B9 (Fab, V domains shown)
VH: EVQLQESGPGLVKPSQTLSLTCTVSGASVTTRYNYWSWIRQPPGKGLEWMGAITYSGSTYYSPSLKSRTSISRDTSKNQFTLQLSSVTPEDTAVYYCATEGSSSTGVSRYSFGSWGQGTQVTVSS
VL: ATMLTQSPGSLSVVPGESASISCKASQSLTHTDGTTALYWLQQKPGQRPQLLIYEVSVRASGVPDRFTGSGSGSDFTLKINGVKAEDAGVYYCAQVAYYPTFGQGTKVELK
notes: as for B1
The molecule B13 came in with a koff in assay [1] of 4.87e-05 s⁻¹. For the same molecule, the EC50 in assay [2] turned out to be 0.00851 µg/mL.

B14: Fab clone 2A9 (Fab, V domains shown)
VH: QVQLVESGPGLVKPSQTLSLTCTVSGGSITTSDDAWSWIRQPAGKGLEWMGVIAYDGSTRYSPSLQSRTSISRDTSKNQFSLQLSSVTPEDTAVYYCARTKGVGGTWALDAWGQGTLVTVSS
VL: EIVLTQSPSSVTASVGEKVTINCKSSQSVLSSSNQKNYLSWYQQRLGQSPRLLITWASTRESGVPDRFSGSGSTTDFTLTISSFQPEDAAVYYCQQGYGAPLTFGQGTKVELKR
notes: as for B1
B14: it took 0.0114 µg/mL to reach a half-maximal effect in assay [2] (EC50).

As a reminder, the koff is the first-order rate constant of dissociation. Read a high koff as a short-lived complex. By EC50 is commonly meant the concentration at which the effect is half-maximal. Lower therefore signals an effect from little substance.

(Values after US20190241668A1 (ARGENX, published 2019).)
